According to paper PMC9018821, “Heterozygous variants in GATA2 contribute to DCML deficiency in mice by disrupting tandem protein binding” (Communications Biology, 2022):

B1: murine GATA2 finger region containing the NF and CF domains (289 aa to 480 aa), wild type, MBP-fused or GST-fused (domain or fragment)
chain: not shown
notes: GATA2, murine, finger region containing the NF and CF domains, residues 289-480; Two differently tagged copies of the same stretch were used; Each copy carries ONE carrier: MBP-fused (bait on amylose beads) or GST-fused (prey in a1, bait on glutathione beads in a2); They are kept as one molecule because the protein is tested against itself; also called G2^WT; MBP-fused G2^WT

Key:
[1] = biological target: the molecule itself; assay: pull-down; recombinant MBP-fused bait mixed with GST-fused prey in binding buffer at room temperature; complexes purified with amylose magnetic beads; immunoblot with anti-GST and anti-MBP
[2] = biological target: B1; assay: as above; conditions: both partners purified

| binding result [2] | Binder | binding result [1] |
| --- | --- | --- |
| – | B1 | binds |
| binds | murine GATA2 finger region (289 aa to 480 aa) with R398W, GST-fused or MBP-fused (domain or fragment, GATA2, murine, finger region containing the NF and CF domains, residues 289-480, with the patient mutation R398W; Each copy carries ONE carrier: GST-fused in a1 (prey), MBP-fused in a2 (prey); The mutation corresponds to a human germline GATA2 mutation found in patients; also called G2^R398W; GST-fused G2^R398W) not shown | – |
| binds | murine GATA2 finger region (289 aa to 480 aa) with T354M, GST-fused or MBP-fused (domain or fragment, GATA2, murine, finger region containing the NF and CF domains, residues 289-480, with the patient mutation T354M; Each copy carries ONE carrier: GST-fused in a1 (prey), MBP-fused in a2 (prey); The mutation is a germline GATA2 mutation found in patients; also called G2^T354M; GST-fused G2^T354M) not shown | – |
